Assay results published in patent US20130137856A1, “PROTEIN BINDING DOMAINS STABILIZING FUNCTIONAL CONFORMATIONAL STATES OF GPCRS AND USES THEREOF” (priority 2010, published 2013).

Molecular target: β2AR-T4L (β2AR with the third intracellular loop replaced by T4 lysozyme, truncated at position 365) (human) (UniProt P07550)
Experiment: cell-based or functional assay

B1: Nanobody-80 (Nb80) (VHH, not shown: small tags and cut ends)
VHH: QVQLQESGGGLVQAGGSLRLSCAASGSIFSINTMGWYRQAPGKQRELVAAIHSGGSTNYANSVKGRFTISRDNAANTVYLQMNSLKPEDTAVYYCNVKDYGAVLYEYDYWGQGTQVTVSS
B1 gave a High affinity state Ki of (-)-isoproterenol, [3H]-DHA competition binding, β2AR-T4L in HDL particles + 1 µM NB80 (β2AR-T4L alone: 33.5) of 0.56 nM and a fold increase of the affinity of isoproterenol of 60 fold.
